This note sets out measurements from patent publication US20220411483A1 (Chugai, published 2022).

For assay [1], the target named is T1, FcγRIIa R type extracellular domain with C-terminal His tag (human, UniProt P12318 34-217).
T1 construct: extracellular domain; also called FcgRIIaR
T1 sequence (looked up): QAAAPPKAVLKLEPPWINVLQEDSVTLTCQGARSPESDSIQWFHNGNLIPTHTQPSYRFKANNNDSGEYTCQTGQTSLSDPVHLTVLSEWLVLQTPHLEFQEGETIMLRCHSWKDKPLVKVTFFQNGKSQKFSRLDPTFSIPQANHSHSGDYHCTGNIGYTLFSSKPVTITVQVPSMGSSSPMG
Put plainly: SPR (Biacore), FcgR as analyte. (In SPR one partner is held on a chip, and binding of the other changes the refractive index at the surface.)

For assay [2], the target named is T2, FcγRIIa R type extracellular domain with C-terminal His tag (human, UniProt P12318 34-217).
T2 construct: extracellular domain; also called FcgRIIaR; not shown: His tag at the C terminus
T2 sequence (looked up): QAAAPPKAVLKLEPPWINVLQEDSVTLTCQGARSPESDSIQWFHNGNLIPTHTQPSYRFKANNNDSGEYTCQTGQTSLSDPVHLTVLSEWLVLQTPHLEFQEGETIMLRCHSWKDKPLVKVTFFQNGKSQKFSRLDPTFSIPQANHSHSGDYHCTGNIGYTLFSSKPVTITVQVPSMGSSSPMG
Put plainly: SPR; KD of IL6R-B3/IL6R-L divided by KD of variant.

Assay [3] concerns the target T3, FcγRIIb extracellular domain with C-terminal His tag (human, UniProt P31994 43-217).
T3 construct: extracellular domain; also called FcgRIIb; not shown: His tag at the C terminus
T3 sequence (looked up): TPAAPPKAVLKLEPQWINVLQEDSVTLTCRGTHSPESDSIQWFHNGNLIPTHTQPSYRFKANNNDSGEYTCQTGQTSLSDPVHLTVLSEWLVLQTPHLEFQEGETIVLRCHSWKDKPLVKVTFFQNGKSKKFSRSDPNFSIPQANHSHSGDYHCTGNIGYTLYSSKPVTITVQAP
Put plainly: SPR; KD of IL6R-B3/IL6R-L divided by KD of variant.

In assay [4] the target is T2, FcγRIIa R type extracellular domain …. Briefly: SPR, antibody captured, FcgR analyte.
For assay [5], the target named is T4, FcγRIa extracellular domain with C-terminal His tag (human, UniProt P12314 16-292).
T4 construct: also called FcgRIa; CD64; not shown: His tag at the C terminus
Briefly: SPR, antibody captured, FcgR analyte.

Assay [6] deals with T3, FcγRIIb extracellular domain with …. Put plainly: SPR, antibody captured, FcgR analyte.
In assay [7] the target is T5, FcγRIIa H type extracellular domain with C-terminal His tag (human, UniProt P12318 34-217).
T5 construct: extracellular domain; also called FcgRIIaH; not shown: His tag at the C terminus
T5 sequence (looked up): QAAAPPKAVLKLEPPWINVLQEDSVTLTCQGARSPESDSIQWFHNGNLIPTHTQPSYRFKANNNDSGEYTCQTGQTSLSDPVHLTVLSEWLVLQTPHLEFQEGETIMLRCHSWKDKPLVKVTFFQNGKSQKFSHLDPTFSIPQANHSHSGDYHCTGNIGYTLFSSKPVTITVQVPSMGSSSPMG
Briefly: SPR, antibody captured, FcgR analyte.

T4 sequence (P12314 16-292): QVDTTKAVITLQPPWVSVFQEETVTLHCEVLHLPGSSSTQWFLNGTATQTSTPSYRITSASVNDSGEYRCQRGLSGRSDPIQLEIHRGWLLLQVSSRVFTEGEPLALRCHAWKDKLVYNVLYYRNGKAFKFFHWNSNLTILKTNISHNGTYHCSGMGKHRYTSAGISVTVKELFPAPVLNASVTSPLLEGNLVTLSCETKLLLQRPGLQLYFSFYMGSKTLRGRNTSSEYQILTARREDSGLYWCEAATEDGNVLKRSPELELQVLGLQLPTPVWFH

B1: IL6R-2B253/IL6R-L (antibody, human IgG1, kappa, name in EU numbering)
heavy: QVQLQESGPGLVKPSETLSLTCAVSGHSISHDHAWSWVRQPPGEGLEWIGFISYSGITNYNPSLQGRVTISRDNSKNTLYLQMNSLRAEDTAVYYCARSLARTTAMDYWGEGTLVTVSSASTKGPSVFPLAPSSKSTSGGTAALGCLVKDYFPEPVTVSWNSGALTSGVHTFPAVLQSSGLYSLSSVVTVPSSSLGTQTYICNVNHKPSNTKVDKKVEPKSCDKTHTCPPCPAPDLLGGDSVFLFPPKPKDTLMISRTPEVTCVVVDVSHEDPEVKFNWYVDGVEVHNAKTKPREEQYNSTYRVVSVLTVLHQDWLNGKEYKCKMSNKALPAPIEKTISKAKGQPREPQVYTLPPSRDELTKNQVSLTCLVKGFYPSDIAVEWESNGQPENNYKTTPPVLDSDGSFFLYSKLTVDKSRWQQGNVFSCSVMHEALHNHYTQESLSLSP
light: not shown
notes: IgG1; alterations on IL6R-B3, EU numbering
In assay [1], B1 registered a Kd of 5000 nM.

B2: IL6R-BP551/IL6R-L (antibody, human IgG1, kappa, name in EU numbering)
heavy: QVQLQESGPGLVKPSETLSLTCAVSGHSISHDHAWSWVRQPPGEGLEWIGFISYSGITNYNPSLQGRVTISRDNSKNTLYLQMNSLRAEDTAVYYCARSLARTTAMDYWGEGTLVTVSSASTKGPSVFPLAPSSKSTSGGTAALGCLVKDYFPEPVTVSWNSGALTSGVHTFPAVLQSSGLYSLSSVVTVPSSSLGTQTYICNVNHKPSNTKVDKKVEPKSCDKTHTCPPCPAPELLGDDSVFLFPPKPKDTLMISRTPEVTCVVIDVSEEDGDVKFNWYVDGVEVHNAKTKPREEQDNSTYRVVSVLTVLHQDWLNGKEYKCKVSNKALPRPIEKTISKAKGQPREPQVYTLPPSRDELTKNQVSLTCLVKGFYPSDIAVEWESNGQPENNYKTTPPVLDSDGSFFLYSKLTVDKSRWQQGNVFSCSVMHEALHNHYTQESLSLSP
light: not shown
notes: human IgG1
B2: in assay [2], the “Relative FcgRIIaR-binding Activity” value was 4.4. For the same molecule, the “Relative FcgRIIb-binding Activity” value in assay [3] was determined as 481. For the same molecule, the Kd was found to be 250 nM in assay [4], 32 nM in assay [5], 6.4 nM in assay [6] and 2800 nM in assay [7].

B3: IL6R-BP540/IL6R-L (antibody, human IgG1, kappa, name in EU numbering)
heavy: QVQLQESGPGLVKPSETLSLTCAVSGHSISHDHAWSWVRQPPGEGLEWIGFISYSGITNYNPSLQGRVTISRDNSKNTLYLQMNSLRAEDTAVYYCARSLARTTAMDYWGEGTLVTVSSASTKGPSVFPLAPSSKSTSGGTAALGCLVKDYFPEPVTVSWNSGALTSGVHTFPAVLQSSGLYSLSSVVTVPSSSLGTQTYICNVNHKPSNTKVDKKVEPKSCDKTHTCPPCPAPELLGDDSVFLFPPKPKDTLMISRTPEVTCVVIDVSEEDGPVKFNWYVDGVEVHNAKTKPREEQDNSTYRVVSVLTVLHQDWLNGKEYKCKVSNKALPRPIEKTISKAKGQPREPQVYTLPPSRDELTKNQVSLTCLVKGFYPSDIAVEWESNGQPENNYKTTPPVLDSDGSFFLYSKLTVDKSRWQQGNVFSCSVMHEALHNHYTQESLSLSP
light: not shown
notes: human IgG1
As to B3, in assay [2], the “Relative FcgRIIaR-binding Activity” value was 5.1. Also, the “Relative FcgRIIb-binding Activity” value in assay [3] amounted to 539. Moreover, the dissociation constant Kd in assay [4] is 210 nM; in assay [5], 96 nM; in assay [6] it was 5.7 nM; in assay [7], 4600 nM.

B4: IL6R-BP556/IL6R-L (antibody, human IgG1, kappa, name in EU numbering)
heavy: QVQLQESGPGLVKPSETLSLTCAVSGHSISHDHAWSWVRQPPGEGLEWIGFISYSGITNYNPSLQGRVTISRDNSKNTLYLQMNSLRAEDTAVYYCARSLARTTAMDYWGEGTLVTVSSASTKGPSVFPLAPSSKSTSGGTAALGCLVKDYFPEPVTVSWNSGALTSGVHTFPAVLQSSGLYSLSSVVTVPSSSLGTQTYICNVNHKPSNTKVDKKVEPKSCDKTHTCPPCPAPELLGDDSVFLFPPKPKDTLMISRTPEVTCVVIDVGEEDGEVKFNWYVDGVEVHNAKTKPREEQDNSTYRVVSVLTVLHQDWLNGKEYKCKVSNKALPRPIEKTISKAKGQPREPQVYTLPPSRDELTKNQVSLTCLVKGFYPSDIAVEWESNGQPENNYKTTPPVLDSDGSFFLYSKLTVDKSRWQQGNVFSCSVMHEALHNHYTQESLSLSP
light: not shown
notes: human IgG1
Consider B4, for which the “Relative FcgRIIaR-binding Activity” value in assay [2] came to 3.6. The “Relative FcgRIIb-binding Activity” value in assay [3] was determined as 369. Moreover, the Kd in assay [4] was found to be 300 nM; in assay [5], 43 nM; in assay [6], 8.4 nM; in assay [7], 5800 nM.

B5: IL6R-BP563/IL6R-L (antibody, human IgG1, kappa, name in EU numbering)
heavy: QVQLQESGPGLVKPSETLSLTCAVSGHSISHDHAWSWVRQPPGEGLEWIGFISYSGITNYNPSLQGRVTISRDNSKNTLYLQMNSLRAEDTAVYYCARSLARTTAMDYWGEGTLVTVSSASTKGPSVFPLAPSSKSTSGGTAALGCLVKDYFPEPVTVSWNSGALTSGVHTFPAVLQSSGLYSLSSVVTVPSSSLGTQTYICNVNHKPSNTKVDKKVEPKSCDKTHTCPPCPAPDLLGDDSVFLFPPKPKDTLMISRTPEVTCVVVDVSEEDGDVKFNWYVDGVEVHNAKTKPREEQDNSTYRVVSVLTVLHQDWLNGKEYKCKVSNKALPRPIEKTISKAKGQPREPQVYTLPPSRDELTKNQVSLTCLVKGFYPSDIAVEWESNGQPENNYKTTPPVLDSDGSFFLYSKLTVDKSRWQQGNVFSCSVMHEALHNHYTQESLSLSP
light: not shown
notes: human IgG1
For the molecule B5, the “Relative FcgRIIaR-binding Activity” value in assay [2] amounted to 2.4. Moreover, the “Relative FcgRIIb-binding Activity” value in assay [3] came out at 196. Further, the dissociation constant Kd turned out to be 460 nM in assay [4], 12 nM in assay [5], 16 nM in assay [6] and 8300 nM in assay [7].

B6: IL6R-BP565/IL6R-L (antibody, human IgG1, kappa, name in EU numbering)
heavy: QVQLQESGPGLVKPSETLSLTCAVSGHSISHDHAWSWVRQPPGEGLEWIGFISYSGITNYNPSLQGRVTISRDNSKNTLYLQMNSLRAEDTAVYYCARSLARTTAMDYWGEGTLVTVSSASTKGPSVFPLAPSSKSTSGGTAALGCLVKDYFPEPVTVSWNSGALTSGVHTFPAVLQSSGLYSLSSVVTVPSSSLGTQTYICNVNHKPSNTKVDKKVEPKSCDKTHTCPPCPAPDLLGDDSVFLFPPKPKDTLMISRTPEVTCVVVDVAEEDGEVKFNWYVDGVEVHNAKTKPREEQDNSTYRVVSVLTVLHQDWLNGKEYKCKVSNKALPRPIEKTISKAKGQPREPQVYTLPPSRDELTKNQVSLTCLVKGFYPSDIAVEWESNGQPENNYKTTPPVLDSDGSFFLYSKLTVDKSRWQQGNVFSCSVMHEALHNHYTQESLSLSP
light: not shown
notes: human IgG1
As to B6, the “Relative FcgRIIaR-binding Activity” value in assay [2] stood at 4.7. Further, in assay [3], the “Relative FcgRIIb-binding Activity” value came out at 563. Further, the Kd was 230 nM in assay [4], 2.4 nM in assay [5], 5.5 nM in assay [6] and 4700 nM in assay [7].

B7: IL6R-BP085/IL6R-L (antibody, human IgG1, kappa, name in EU numbering)
heavy: QVQLQESGPGLVKPSETLSLTCAVSGHSISHDHAWSWVRQPPGEGLEWIGFISYSGITNYNPSLQGRVTISRDNSKNTLYLQMNSLRAEDTAVYYCARSLARTTAMDYWGEGTLVTVSSASTKGPSVFPLAPSSKSTSGGTAALGCLVKDYFPEPVTVSWNSGALTSGVHTFPAVLQSSGLYSLSSVVTVPSSSLGTQTYICNVNHKPSNTKVDKKVEPKSCDKTHTCPPCPAPELLGDDSVFLFPPKPKDTLMISRTPEVTCVVVDVSHEDPEVKFNWYVDGVEVHNAKTKPREEQYNSTYRVVSVLTVLHQDWLNGKEYKCKVSNKALPKPIEKTISKAKGQPREPQVYTLPPSRDELTKNQVSLTCLVKGFYPSDIAVEWESNGQPENNYKTTPPVLDSDGSFFLYSKLTVDKSRWQQGNVFSCSVMHEALHNHYTQESLSLSP
light: not shown
notes: as for B1
In turn, B7 registered a Kd in assay [1] of 4200 nM.

B8: IL6R-BP550/IL6R-L (antibody, human IgG1, kappa, name in EU numbering)
heavy: QVQLQESGPGLVKPSETLSLTCAVSGHSISHDHAWSWVRQPPGEGLEWIGFISYSGITNYNPSLQGRVTISRDNSKNTLYLQMNSLRAEDTAVYYCARSLARTTAMDYWGEGTLVTVSSASTKGPSVFPLAPSSKSTSGGTAALGCLVKDYFPEPVTVSWNSGALTSGVHTFPAVLQSSGLYSLSSVVTVPSSSLGTQTYICNVNHKPSNTKVDKKVEPKSCDKTHTCPPCPAPELLGDDSVFLFPPKPKDTLMISRTPEVTCVVIDVGEEDGDVKFNWYVDGVEVHNAKTKPREEQDNSTYRVVSVLTVLHQDWLNGKEYKCKVSNKALPRPIEKTISKAKGQPREPQVYTLPPSRDELTKNQVSLTCLVKGFYPSDIAVEWESNGQPENNYKTTPPVLDSDGSFFLYSKLTVDKSRWQQGNVFSCSVMHEALHNHYTQESLSLSP
light: not shown
notes: human IgG1
B8: in assay [2], the “Relative FcgRIIaR-binding Activity” value is 3.2. Also, the “Relative FcgRIIb-binding Activity” value in assay [3] was found to be 405. Moreover, the Kd in assay [4] came out at 340 nM; in assay [5] it was 25 nM; in assay [6], 7.6 nM; in assay [7] it was 5000 nM.

As usually defined, the Kd is the concentration at which binding is half-saturated. The low end stands for tighter binding, the high end for weaker binding.
